Data on 125 sequences can be found in the supplement of paper PMC9112550, “Optimization of the antimicrobial peptide Bac7 by deep mutational scanning” (BMC Biology, 2022).
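Further: peptides expressed intracellularly from a pBAD plasmid library in pooled LB shake-flask culture, induced with 0.3% L-arabinose, DNA abundance read by NGS, three biological replicates, DESeq2 with apeglm shrinkage.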

In the data set the test system is Escherichia coli TOP10. The data set is described as follows: shrunken log2 fold change of peptide-encoding DNA abundance (4.5 h post-induction vs induction); higher = less antimicrobial activity (less host growth inhibition). Conditions: time post-induction: 4.5 h; library: site-saturation at positions 5, 18, 19, 20.
Turning to RRIRDRPPRLPRPRPRPYPKPRP, the “shrunken log2 fold change” value was -0.143.

With RRIRHRPPRLPRPRPRPYEEPRP, the “shrunken log2 fold change” value was -0.431.

As to RRIRLRPPRLPRPRPRPRPPPRP, the “shrunken log2 fold change” value is 1.58.

Take RRIRQRPPRLPRPRPRPERMPRP: the “shrunken log2 fold change” value was 0.0275.

With RRIRFRPPRLPRPRPRPEIWPRP, the “shrunken log2 fold change” value amounted to 0.217.

RRIRIRPPRLPRPRPRPLMDPRP: the “shrunken log2 fold change” value was -0.396.

As for RRIRPRPPRLPRPRPRPFNFPRP, the “shrunken log2 fold change” value was -0.155.

On to RRIRRRPPRLPRPRPRPLKPPRP, for which the “shrunken log2 fold change” value was determined as 0.314.

With RRIRQRPPRLPRPRPRPNIHPRP, the “shrunken log2 fold change” value is -0.619.

Regarding RRIRARPPRLPRPRPRPCSSPRP, the “shrunken log2 fold change” value came to 0.0291.

Consider RRIRDRPPRLPRPRPRPMCIPRP, for which the “shrunken log2 fold change” value was -0.121.

For RRIRARPPRLPRPRPRPVHYPRP, the “shrunken log2 fold change” value is -0.198.

With RRIRKRPPRLPRPRPRPYMIPRP, the “shrunken log2 fold change” value is -0.415.

In the case of RRIRTRPPRLPRPRPRPPLKPRP, the “shrunken log2 fold change” value was -0.0323.

Consider RRIRPRPPRLPRPRPRPVFPPRP, for which the “shrunken log2 fold change” value stood at 0.181.

With RRIRNRPPRLPRPRPRPEVHPRP, the “shrunken log2 fold change” value was -0.0167.

For the sequence RRIRTRPPRLPRPRPRPEQHPRP, the “shrunken log2 fold change” value was determined as 0.0492.

As to RRIRIRPPRLPRPRPRPHDIPRP, the “shrunken log2 fold change” value is -0.146.

Turning to RRIRKRPPRLPRPRPRPLFPPRP, the “shrunken log2 fold change” value came out at 0.161.

In the case of RRIRCRPPRLPRPRPRPPYLPRP, the “shrunken log2 fold change” value was -0.87.

On to RRIRTRPPRLPRPRPRPEQMPRP, for which the “shrunken log2 fold change” value is 0.233.

On to RRIRSRPPRLPRPRPRPWFFPRP, for which the “shrunken log2 fold change” value was -0.197.

In the case of RRIRTRPPRLPRPRPRPVGAPRP, the “shrunken log2 fold change” value was 0.327.

Regarding RRIRCRPPRLPRPRPRPMYVPRP, the “shrunken log2 fold change” value was -0.766.

RRIRSRPPRLPRPRPRPEPIPRP: the “shrunken log2 fold change” value was determined as 0.312.

With RRIRQRPPRLPRPRPRPCFNPRP, the “shrunken log2 fold change” value was -0.161.

Turning to RRIRNRPPRLPRPRPRPAQPPRP, the “shrunken log2 fold change” value is -0.0398.

Turning to RRIRYRPPRLPRPRPRPCILPRP, the “shrunken log2 fold change” value came out at 0.00867.

On to RRIRIRPPRLPRPRPRPKDIPRP, for which the “shrunken log2 fold change” value was -1.25.

Turning to RRIRCRPPRLPRPRPRPLAYPRP, the “shrunken log2 fold change” value is -0.616.

For RRIRGRPPRLPRPRPRPDWPPRP, the “shrunken log2 fold change” value is 0.566.

Consider RRIRFRPPRLPRPRPRPQNWPRP, for which the “shrunken log2 fold change” value was -0.148.

For RRIRMRPPRLPRPRPRPMMHPRP, the “shrunken log2 fold change” value was -0.0538.

Consider RRIRARPPRLPRPRPRPFARPRP, for which the “shrunken log2 fold change” value is -0.0584.

Turning to RRIRNRPPRLPRPRPRPKMYPRP, the “shrunken log2 fold change” value was -0.0156.

For the sequence RRIRLRPPRLPRPRPRPLSDPRP, the “shrunken log2 fold change” value was determined as 0.0376.

Regarding RRIRIRPPRLPRPRPRPRKAPRP, the “shrunken log2 fold change” value is -0.000442.

For the sequence RRIRYRPPRLPRPRPRPYSHPRP, the “shrunken log2 fold change” value was -0.958.

For the sequence RRIRWRPPRLPRPRPRPTWLPRP, the “shrunken log2 fold change” value amounted to 0.694.

Turning to RRIRFRPPRLPRPRPRPINIPRP, the “shrunken log2 fold change” value was -0.113.

As for RRIRNRPPRLPRPRPRPPVNPRP, the “shrunken log2 fold change” value is -0.249.

Take RRIRWRPPRLPRPRPRPEKTPRP: the “shrunken log2 fold change” value stood at 0.191.

For RRIRSRPPRLPRPRPRPEGCPRP, the “shrunken log2 fold change” value was determined as 0.0128.

Turning to RRIRVRPPRLPRPRPRPMPEPRP, the “shrunken log2 fold change” value was -0.192.

Turning to RRIRPRPPRLPRPRPRPMTIPRP, the “shrunken log2 fold change” value is -0.421.

Consider RRIRNRPPRLPRPRPRPKPPPRP, for which the “shrunken log2 fold change” value was 0.436.

Take RRIRKRPPRLPRPRPRPTDSPRP: the “shrunken log2 fold change” value was -0.0461.

Take RRIRTRPPRLPRPRPRPWMAPRP: the “shrunken log2 fold change” value is -0.295.

For RRIRFRPPRLPRPRPRPEQIPRP, the “shrunken log2 fold change” value was 0.131.

Turning to RRIRNRPPRLPRPRPRPCCFPRP, the “shrunken log2 fold change” value is -0.278.

As to RRIRQRPPRLPRPRPRPYWIPRP, the “shrunken log2 fold change” value was -0.152.

Regarding RRIRGRPPRLPRPRPRPQQCPRP, the “shrunken log2 fold change” value came to 0.13.

As to RRIRSRPPRLPRPRPRPDIWPRP, the “shrunken log2 fold change” value turned out to be 0.00423.

For RRIRERPPRLPRPRPRPPFHPRP, the “shrunken log2 fold change” value was -0.139.

For RRIRERPPRLPRPRPRPVKHPRP, the “shrunken log2 fold change” value is 0.0875.

Regarding RRIRVRPPRLPRPRPRPGMIPRP, the “shrunken log2 fold change” value is -0.2.

For RRIRVRPPRLPRPRPRPMWPPRP, the “shrunken log2 fold change” value worked out at 0.0245.

RRIRTRPPRLPRPRPRPQNVPRP: the “shrunken log2 fold change” value worked out at 0.0194.

With RRIRIRPPRLPRPRPRPLRVPRP, the “shrunken log2 fold change” value was 0.291.

Turning to RRIRHRPPRLPRPRPRPCIPPRP, the “shrunken log2 fold change” value is -0.809.

For RRIRSRPPRLPRPRPRPKSQPRP, the “shrunken log2 fold change” value is 0.164.

Take RRIRPRPPRLPRPRPRPRPLPRP: the “shrunken log2 fold change” value stood at 0.627.

For RRIRTRPPRLPRPRPRPICHPRP, the “shrunken log2 fold change” value was 0.055.

Regarding RRIRPRPPRLPRPRPRPIDTPRP, the “shrunken log2 fold change” value was -0.35.

On to RRIRARPPRLPRPRPRPIEPPRP, for which the “shrunken log2 fold change” value was 0.0525.

RRIRSRPPRLPRPRPRPLQGPRP: the “shrunken log2 fold change” value was -0.0686.

RRIRNRPPRLPRPRPRPQWPPRP: the “shrunken log2 fold change” value was determined as 0.00622.

As for RRIRQRPPRLPRPRPRPSTQPRP, the “shrunken log2 fold change” value was -0.481.

For the sequence RRIRARPPRLPRPRPRPAKGPRP, the “shrunken log2 fold change” value is 0.342.

With RRIRHRPPRLPRPRPRPSSTPRP, the “shrunken log2 fold change” value was -0.741.

Turning to RRIRHRPPRLPRPRPRPCNWPRP, the “shrunken log2 fold change” value is -0.0331.

For RRIRWRPPRLPRPRPRPETDPRP, the “shrunken log2 fold change” value was 0.773.

Consider RRIRMRPPRLPRPRPRPKLQPRP, for which the “shrunken log2 fold change” value is 0.273.

Consider RRIRPRPPRLPRPRPRPICKPRP, for which the “shrunken log2 fold change” value was -0.081.

As to RRIRQRPPRLPRPRPRPFDCPRP, the “shrunken log2 fold change” value is -0.408.

Turning to RRIRFRPPRLPRPRPRPNVVPRP, the “shrunken log2 fold change” value is -0.046.

For the sequence RRIRARPPRLPRPRPRPYSPPRP, the “shrunken log2 fold change” value was -0.409.

Regarding RRIRWRPPRLPRPRPRPQETPRP, the “shrunken log2 fold change” value was -0.00116.

Turning to RRIRDRPPRLPRPRPRPGPSPRP, the “shrunken log2 fold change” value was -0.0742.

In the case of RRIRMRPPRLPRPRPRPRKLPRP, the “shrunken log2 fold change” value is 0.857.

RRIRSRPPRLPRPRPRPNSAPRP: the “shrunken log2 fold change” value was -0.35.

In the case of RRIRCRPPRLPRPRPRPWTTPRP, the “shrunken log2 fold change” value is -0.138.

For RRIRTRPPRLPRPRPRPVSCPRP, the “shrunken log2 fold change” value was -0.206.

With RRIRCRPPRLPRPRPRPVMDPRP, the “shrunken log2 fold change” value was -0.0102.

Take RRIRFRPPRLPRPRPRPSNCPRP: the “shrunken log2 fold change” value is -0.529.

For RRIRYRPPRLPRPRPRPNHGPRP, the “shrunken log2 fold change” value was -0.0102.

Regarding RRIRSRPPRLPRPRPRPETFPRP, the “shrunken log2 fold change” value was 0.0203.

Regarding RRIRMRPPRLPRPRPRPCWRPRP, the “shrunken log2 fold change” value is 0.14.

For RRIRRRPPRLPRPRPRPNIFPRP, the “shrunken log2 fold change” value was -0.0516.

For the sequence RRIRERPPRLPRPRPRPCPFPRP, the “shrunken log2 fold change” value is -1.04.

RRIRVRPPRLPRPRPRPCFWPRP: the “shrunken log2 fold change” value is -0.0218.

With RRIRPRPPRLPRPRPRPEARPRP, the “shrunken log2 fold change” value is 0.374.

Consider RRIRMRPPRLPRPRPRPSFRPRP, for which the “shrunken log2 fold change” value was found to be 0.142.

On to RRIRQRPPRLPRPRPRPWNMPRP, for which the “shrunken log2 fold change” value is -0.086.

Regarding RRIRDRPPRLPRPRPRPQGPPRP, the “shrunken log2 fold change” value stood at 0.0365.

For the sequence RRIRARPPRLPRPRPRPAIVPRP, the “shrunken log2 fold change” value was -0.123.

Turning to RRIRPRPPRLPRPRPRPWPPPRP, the “shrunken log2 fold change” value was found to be 0.504.

Turning to RRIRVRPPRLPRPRPRPKFYPRP, the “shrunken log2 fold change” value is -0.46.

On to RRIRERPPRLPRPRPRPYWRPRP, for which the “shrunken log2 fold change” value was -0.0166.

As for RRIRSRPPRLPRPRPRPNQAPRP, the “shrunken log2 fold change” value was -0.169.

Regarding RRIRDRPPRLPRPRPRPPPSPRP, the “shrunken log2 fold change” value amounted to 0.838.

In the case of RRIRHRPPRLPRPRPRPSDGPRP, the “shrunken log2 fold change” value was -0.266.

With RRIRQRPPRLPRPRPRPNYLPRP, the “shrunken log2 fold change” value is -0.134.

Regarding RRIRQRPPRLPRPRPRPEMRPRP, the “shrunken log2 fold change” value amounted to 1.13.

RRIRKRPPRLPRPRPRPANTPRP: the “shrunken log2 fold change” value is -0.0533.

As for RRIRFRPPRLPRPRPRPISLPRP, the “shrunken log2 fold change” value is -0.452.

For RRIRQRPPRLPRPRPRPRSCPRP, the “shrunken log2 fold change” value stood at 0.268.

Take RRIRPRPPRLPRPRPRPASDPRP: the “shrunken log2 fold change” value stood at 0.261.

RRIRVRPPRLPRPRPRPEGKPRP: the “shrunken log2 fold change” value is 0.217.

For the sequence RRIRWRPPRLPRPRPRPIADPRP, the “shrunken log2 fold change” value was determined as 0.0247.

As to RRIRCRPPRLPRPRPRPQDAPRP, the “shrunken log2 fold change” value came to 0.0575.

Turning to RRIRARPPRLPRPRPRPITCPRP, the “shrunken log2 fold change” value is -0.119.

RRIRIRPPRLPRPRPRPLSDPRP: the “shrunken log2 fold change” value came to 0.0446.

For the sequence RRIRSRPPRLPRPRPRPHHVPRP, the “shrunken log2 fold change” value was -0.243.

Regarding RRIRLRPPRLPRPRPRPISQPRP, the “shrunken log2 fold change” value is -0.135.

For the sequence RRIRHRPPRLPRPRPRPRDDPRP, the “shrunken log2 fold change” value is -0.0505.

For RRIRPRPPRLPRPRPRPNMMPRP, the “shrunken log2 fold change” value was -0.593.

For RRIRRRPPRLPRPRPRPNLEPRP, the “shrunken log2 fold change” value was determined as 0.442.

RRIRNRPPRLPRPRPRPRATPRP: the “shrunken log2 fold change” value came to 0.659.

RRIRYRPPRLPRPRPRPQASPRP: the “shrunken log2 fold change” value is -0.0259.

As to RRIRFRPPRLPRPRPRPTWRPRP, the “shrunken log2 fold change” value was determined as 0.587.

RRIRFRPPRLPRPRPRPILLPRP: the “shrunken log2 fold change” value was -0.554.

As for RRIRYRPPRLPRPRPRPPALPRP, the “shrunken log2 fold change” value was -0.1.

As for RRIRWRPPRLPRPRPRPDCHPRP, the “shrunken log2 fold change” value is -0.346.

Regarding RRIRYRPPRLPRPRPRPVEMPRP, the “shrunken log2 fold change” value is -1.52.
